B5: LexA-Cdk7 (other, UniProt P0A7C2 1-202, looked up)
chain: MKALTARQQEVFDLIRDHISQTGMPPTRAEIAQRLGFRSPNAAEEHLKALARKGVIEIVSGASRGIRLLQEEEEGLPLVGRVAAGEPLLAQQHIEGHYQVDPSLFKPNADFLLRVSGMSMKDIGIMDGDLLAVHKTQDVRNGQVVVARIDDEVTVKRLKKQGNKVELLPENSEFKPIVVDLRQQSFTIEGLAVGVIRNGDWLMALDVKSRAKRYEKLDFLGEGQFATVYKARDKNTNQIVAIKKIKLGHRSEAKDGINRTALREIKLLQELSHPNIIGLLDAFGHKSNISLVFDFMETDLEVIIKDNSLVLTPSHIKAYMLMTLQGLEYLHQHWILHRDLKPNNLLLDENGVLKLADFGLAKSFGSPNRAYTHQVVTRWYRAPELLFGARMYGVGVDMWAVGCILAELLLRVPFLPGDSDLDQLTRIFETLGTPTEEQWPDMCSLPDYVTFKSFPGIPLHHIFSAAGDDLLDLIQGLFLFNPCARITATQALKMKYFSNRPGPTPGCQLPRPNCPVETLKEQSNPALAIKRKRTEALEQGGLPKKLIF
notes: Fusion protein expressed in yeast L40 from the ADH constitutive promoter; also called Lex-Cdk7

Experiment [1] concerns the target B5. Description: yeast three-hybrid (L40), LexA-Cdk7 with Cyclin H expressed; growth test and β-galactosidase test.
Experiment [2] has as its target B5. Description: cell-based or functional assay.
The target of the next experiment is T1, VP16 fused with XPD (UniProt P18074 1-760).
T1 construct: One of the five TFIIH core sub-units put into pVP16 as specificity controls
Description: yeast three-hybrid (L40), LexA-Cdk7 with Cyclin H expressed; growth test and β-galactosidase test.

The target in another experiment is T2, VP16 fused with XPB (UniProt P19447 1-782).
T2 construct: One of the five TFIIH core sub-units put into pVP16 as specificity controls
The experiment is described as above.

The source of these data is patent US6479237 (INSTITUT NATIONAL DE LA SANTE ET DE LA RECHERCHE MEDICALE …, dated 2002).

Where only a bound is given, the exact number is not on record here.

T2 sequence (P19447 whole entry, the tested form may be a part): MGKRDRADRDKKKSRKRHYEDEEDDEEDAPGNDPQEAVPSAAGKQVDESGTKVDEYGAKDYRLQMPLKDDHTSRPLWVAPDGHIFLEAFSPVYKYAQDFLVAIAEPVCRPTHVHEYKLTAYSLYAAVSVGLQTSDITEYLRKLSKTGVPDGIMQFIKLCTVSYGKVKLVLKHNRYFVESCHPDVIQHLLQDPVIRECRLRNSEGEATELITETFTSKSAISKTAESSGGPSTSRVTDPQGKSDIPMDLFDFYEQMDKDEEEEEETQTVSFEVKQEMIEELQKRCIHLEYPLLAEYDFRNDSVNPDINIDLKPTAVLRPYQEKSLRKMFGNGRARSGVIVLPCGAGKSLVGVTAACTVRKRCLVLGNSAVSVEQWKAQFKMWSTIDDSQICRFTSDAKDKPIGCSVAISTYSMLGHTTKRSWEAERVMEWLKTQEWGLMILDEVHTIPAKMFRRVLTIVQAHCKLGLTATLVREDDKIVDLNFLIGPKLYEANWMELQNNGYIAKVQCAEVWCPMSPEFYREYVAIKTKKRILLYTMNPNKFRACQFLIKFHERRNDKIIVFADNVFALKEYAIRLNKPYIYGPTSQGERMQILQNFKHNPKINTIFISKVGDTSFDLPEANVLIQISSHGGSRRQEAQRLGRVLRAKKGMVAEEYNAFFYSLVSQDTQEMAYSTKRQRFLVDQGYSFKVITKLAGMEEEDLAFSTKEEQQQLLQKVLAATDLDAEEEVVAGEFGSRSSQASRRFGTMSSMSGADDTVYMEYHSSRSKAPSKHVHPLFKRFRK

B1: VP16 alone (not containing any fused protein) (other)
chain: STAPPTDVSLGDELHLDGEDVAMAHADALDDFDLDMLGDGDSPGPGFTPHDSAPYGALDMADFEFEQMFTDALGIDEYGG
notes: Negative control
In the case of B1, the binding result with LexA-Cdk7 [1] is recorded as “no binding”.

B2: VP16 fused with p34 (other)
chain: MVSDEDELNLLVIVVDANPIWWGKQALKESQFTLSKCIDAVMVLGNSHLFMNRSNKLAVIASHIQESRFLYPGKNGRLGDFFGDPGNPPEFNPSGSKDGKYELLTSANEVIVEEIKDLMTKSDIKGQHTETLLAGSLAKALCYIHRMNKEVKDNQEMKSRILVIKAAEDSALQYMNFMNVIFAAQKQNILIDACVLDSDSGLLQQACDITGGLYLKVPQMPSLLQYLLWVFLPDQDQRSQLILPPPVHVDYRAACFCHRNLIEIGYVCSVCLSIFCNFSPICTTCETAFKISLPPVLKAKKKKLKVSA
notes: One of the five TFIIH core sub-units put into pVP16 as specificity controls
As for B2, the binding result with LexA-Cdk7 [1] is “no binding”.

B3: VP16 fused with p44 (other)
chain: MDEEPERTKRWEGGYERTWEILKEDESGSLKATIEDILFKAKRKRVFEHHGQVRLGMMRHLYVVVDGSRTMEDQDLKPNRLTCTLKLLEYFVEEYFDQNPISQIGIIVTKSKRAEKLTELSGNPRKHITSLKKAVDMTCHGEPSLYNSLSIAMQTLKHMPGHTSREVLIIFSSLTTCDPSNIYDLIKTLKAAKIRVSVIGLSAEVRVCTVLARETGGTYHVILDESHYKELLTHHVSPPPASSSSECSLIRMGFPQHTIASLSDQDAKPSFSMAHLDGNTEPGLTLGGYFCPQCRAKYCELPVECKICGLTLVSAPHLARSYHHLFPLDAFQEIPLEEYNGERFCYGCQGELKDQHVYVCAVCQNVFCVDCDVFVHDSLHCCPGCIHKIPAPSGV
notes: as for B2
For the molecule B3, the binding result with LexA-Cdk7 [1] is reported as “no binding”.

B4: VP16-MAT1 (other)
chain: STAPPTDVSLGDELHLDGEDVAMAHADALDDFDLDMLGDGDSPGPGFTPHDSAPYGALDMADFEFEQMFTDALGIDEYGGMDDQGCPRCKTTKYRNPSLKLMVNVCGHTLCESCVDLLFVRGAGNCPECGTPLRKSNFRVQLFEDPTVDKEVEIRKKVLKIYNKREEDFPSLREYNDFLEEVEEIVFNLTNNVDLDNTKKKMEIYQKENKDVIQKNKLKLTREQEELEEALEVERQENEQRRLFIQKEEQLQQILKRKNKQAFLDELESSDLPVALLLAQHKDRSTQLEMQLEKPKPVKPVTFSTGIKMGQHISLAPIHKLEEALYEYQPLQIETYGPHVPELEMLGRLGYLNHVRAASPQDLAGGYTSSLACHRALQDAFSGLFWQPS
In the case of B4, the “inhibition of the β-Gal activity by methionine (repression of Cyclin H)” value in the experiment with LexA-Cdk7 [2] was more than 6 fold. With B5, the binding result with VP16 fused with XPD and with VP16 fused with XPB was “no binding” each time.
